What follows are sequences tested on Escherichia coli TOP10 (assay: shrunken log2 fold change of peptide-encoding DNA abundance (4.5 h post-induction vs induction); higher = less antimicrobial activity (less host growth inhibition)). Settings: time post-induction: 4.5 h; library: site-saturation at positions 5, 18, 19, 20.
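Note: peptides expressed intracellularly from a pBAD plasmid library in pooled LB shake-flask culture, induced with 0.3% L-arabinose, DNA abundance read by NGS, three biological replicates, DESeq2 with apeglm shrinkage.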

| Sequence | shrunken log2 fold change |
| --- | --- |
| RRIRTRPPRLPRPRPRPVWQPRP | 0.256 |
| RRIRLRPPRLPRPRPRPFSKPRP | -0.456 |
| RRIRSRPPRLPRPRPRPRVWPRP | 0.536 |
| RRIRQRPPRLPRPRPRPSSLPRP | -0.728 |
| RRIRGRPPRLPRPRPRPRHEPRP | 0.604 |
| RRIRHRPPRLPRPRPRPWMLPRP | -0.0885 |
| RRIRGRPPRLPRPRPRPITRPRP | 0.133 |
| RRIRFRPPRLPRPRPRPYGAPRP | -0.193 |
| RRIRNRPPRLPRPRPRPNPFPRP | -0.0489 |
| RRIRERPPRLPRPRPRPDGCPRP | 0.0163 |
| RRIRCRPPRLPRPRPRPICRPRP | -0.0824 |
| RRIRNRPPRLPRPRPRPDEKPRP | -0.133 |
| RRIRFRPPRLPRPRPRPLTGPRP | -0.196 |
| RRIRVRPPRLPRPRPRPLCFPRP | 0.258 |
| RRIRHRPPRLPRPRPRPKRLPRP | 0.0708 |
| RRIRLRPPRLPRPRPRPNCKPRP | -0.143 |
| RRIRDRPPRLPRPRPRPEDHPRP | 1.08 |
| RRIRRRPPRLPRPRPRPHRDPRP | 0.546 |
| RRIRRRPPRLPRPRPRPDNNPRP | -0.187 |
| RRIRRRPPRLPRPRPRPSPFPRP | 0.292 |
| RRIRERPPRLPRPRPRPCMGPRP | -0.0551 |
| RRIRHRPPRLPRPRPRPETHPRP | 0.0411 |
| RRIRSRPPRLPRPRPRPHVIPRP | -0.6 |
| RRIRCRPPRLPRPRPRPSAWPRP | 0.0978 |
| RRIRARPPRLPRPRPRPLHEPRP | 0.314 |

| Sequence | shrunken log2 fold change |
| --- | --- |
| RRIRFRPPRLPRPRPRPHKRPRP | 0.0127 |
| RRIRPRPPRLPRPRPRPNEDPRP | -0.509 |
| RRIRMRPPRLPRPRPRPMNTPRP | 0.206 |
| RRIRMRPPRLPRPRPRPWLEPRP | -0.00871 |
| RRIRSRPPRLPRPRPRPLCVPRP | -0.143 |
| RRIRARPPRLPRPRPRPPAKPRP | 1.12 |
| RRIRLRPPRLPRPRPRPVVFPRP | -0.136 |
| RRIRFRPPRLPRPRPRPLLRPRP | 0.0227 |
| RRIRARPPRLPRPRPRPNTIPRP | -0.0317 |
| RRIRGRPPRLPRPRPRPNQYPRP | -0.166 |
| RRIRFRPPRLPRPRPRPHMCPRP | -1.24 |
| RRIRPRPPRLPRPRPRPPVVPRP | 0.649 |
| RRIRWRPPRLPRPRPRPVYKPRP | -0.516 |
| RRIRMRPPRLPRPRPRPYYVPRP | -0.0412 |
| RRIRRRPPRLPRPRPRPQETPRP | 0.00135 |
| RRIRTRPPRLPRPRPRPYDMPRP | 0.0197 |
| RRIRRRPPRLPRPRPRPCATPRP | 0.586 |
| RRIRIRPPRLPRPRPRPWIHPRP | 2.37 |
| RRIRNRPPRLPRPRPRPDDCPRP | -0.108 |
| RRIRHRPPRLPRPRPRPVLNPRP | 0.157 |
| RRIRDRPPRLPRPRPRPWMYPRP | -0.267 |
| RRIRFRPPRLPRPRPRPCPKPRP | 0.036 |
| RRIRERPPRLPRPRPRPWHNPRP | -0.344 |
| RRIRDRPPRLPRPRPRPKTRPRP | 0.533 |
| RRIRKRPPRLPRPRPRPMFKPRP | -0.0779 |

| Sequence | shrunken log2 fold change |
| --- | --- |
| RRIRFRPPRLPRPRPRPCRNPRP | -0.0376 |
| RRIRFRPPRLPRPRPRPEKCPRP | 0.00859 |
| RRIRRRPPRLPRPRPRPNHDPRP | 0.196 |
| RRIRGRPPRLPRPRPRPHWCPRP | 0.00693 |
| RRIRWRPPRLPRPRPRPNFPPRP | 0.0284 |
| RRIRDRPPRLPRPRPRPGFTPRP | 0.125 |
| RRIRDRPPRLPRPRPRPMWMPRP | 0.149 |
| RRIRIRPPRLPRPRPRPILRPRP | -0.484 |
| RRIRKRPPRLPRPRPRPEQCPRP | 0.025 |
| RRIRKRPPRLPRPRPRPTALPRP | 0.213 |
| RRIRLRPPRLPRPRPRPSKQPRP | -0.572 |
| RRIRARPPRLPRPRPRPIEFPRP | -0.0488 |
| RRIRHRPPRLPRPRPRPFYSPRP | -0.00674 |
| RRIRHRPPRLPRPRPRPACIPRP | -0.132 |
| RRIRLRPPRLPRPRPRPHKQPRP | -0.0935 |
| RRIRVRPPRLPRPRPRPEVAPRP | 1.82 |
| RRIRDRPPRLPRPRPRPADTPRP | -0.379 |
| RRIRERPPRLPRPRPRPSVKPRP | -0.625 |
| RRIRCRPPRLPRPRPRPHAYPRP | -0.759 |
| RRIRERPPRLPRPRPRPLNIPRP | -0.662 |
| RRIRIRPPRLPRPRPRPWVSPRP | -0.119 |
| RRIRARPPRLPRPRPRPTVLPRP | 0.106 |
| RRIRLRPPRLPRPRPRPYDFPRP | -0.0867 |
| RRIRTRPPRLPRPRPRPWMEPRP | -0.326 |
| RRIRFRPPRLPRPRPRPTAAPRP | 0.569 |

Source: the supplement of paper PMC9112550, “Optimization of the antimicrobial peptide Bac7 by deep mutational scanning” (BMC Biology, 2022)
